According to patent US20210238292A1 (VACCINEX, published 2021):
Positions count from the first letter of the chain named. Read-outs that look alike come from different tables or passages of the source.

Assays:
[1] = target: T1, Cynomolgus CCR8-ECD-Fc (cynomolgus monkey); assay: binding to CyCCR8-ECD-Fc protein, OD450-570 nm
T1 construct: also called CyCCR8-ECD-Fc; Cynomolgus CCR8-Fc
T1 chain: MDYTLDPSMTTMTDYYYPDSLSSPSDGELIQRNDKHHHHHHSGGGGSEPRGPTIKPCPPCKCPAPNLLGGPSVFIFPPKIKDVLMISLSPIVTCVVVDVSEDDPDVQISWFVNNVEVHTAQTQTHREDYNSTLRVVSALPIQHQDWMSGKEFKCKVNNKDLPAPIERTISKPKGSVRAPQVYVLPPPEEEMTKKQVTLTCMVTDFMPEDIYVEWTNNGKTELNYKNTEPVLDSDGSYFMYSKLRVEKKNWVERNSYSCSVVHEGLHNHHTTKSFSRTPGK

[2] = target: T2, Human CCR8-ECD-Fc (human); assay: binding to HuCCR8-ECD-Fc protein, OD450-570 nm
T2 construct: also called HuCCR8-ECD-Fc; huCC8-ECD-Fc
T2 chain: T1 chain with P7L, M9V, M12V, S20I, L21F, G27A, R32T, D34G

[3] = target: T3, cynomolgus monkey CCR8 expressed on cells (cynomolgus monkey, UniProt G7NYJ2 1-355); assay: on-cell affinity, flow cytometry on 293T cells expressing cyno CCR8
T3 construct: whole, on cells; also called cyno CCR8; CyCCR8

[4] = target: T4, human CCR8 (C-C chemokine receptor type 8) expressed on cells (human, UniProt P51685 1-355); assay: on-cell affinity, flow cytometry on 293T cells expressing human CCR8
T4 construct: also called HuCCR8

[5] = target: T5, mouse CCR8 expressed on 293T cells (mouse, UniProt P56484 1-353); assay: flow cytometry, MoCCR8-293T cells, fold geomean over secondary alone
T5 construct: whole, on cells
T5 sequence (looked up): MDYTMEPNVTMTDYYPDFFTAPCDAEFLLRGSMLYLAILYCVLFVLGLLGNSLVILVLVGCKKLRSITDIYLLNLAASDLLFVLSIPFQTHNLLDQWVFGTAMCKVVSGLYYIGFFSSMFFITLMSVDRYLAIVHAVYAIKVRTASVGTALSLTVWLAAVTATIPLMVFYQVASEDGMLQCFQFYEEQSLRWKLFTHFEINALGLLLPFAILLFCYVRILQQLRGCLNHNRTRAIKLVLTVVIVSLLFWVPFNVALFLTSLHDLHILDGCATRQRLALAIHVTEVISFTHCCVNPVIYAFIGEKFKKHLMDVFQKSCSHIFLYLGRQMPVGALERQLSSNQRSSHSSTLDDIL

[6] = target: T2, Human CCR8-ECD-Fc; assay: binding to HuCCR8-ECD-Fc protein, OD450-570nm
[7] = target: T1, Cynomolgus CCR8-ECD-Fc; assay: binding to CynoCCR8-ECD-Fc protein, OD450-570nm
[8] = target: T3, cynomolgus monkey CCR8 expressed on …; assay: on-cell affinity, flow cytometry on 293T cells expressing cyno CCR8; remark: listed apart in the source
Target sequence in this assay (G7NYJ2 entry or part of it): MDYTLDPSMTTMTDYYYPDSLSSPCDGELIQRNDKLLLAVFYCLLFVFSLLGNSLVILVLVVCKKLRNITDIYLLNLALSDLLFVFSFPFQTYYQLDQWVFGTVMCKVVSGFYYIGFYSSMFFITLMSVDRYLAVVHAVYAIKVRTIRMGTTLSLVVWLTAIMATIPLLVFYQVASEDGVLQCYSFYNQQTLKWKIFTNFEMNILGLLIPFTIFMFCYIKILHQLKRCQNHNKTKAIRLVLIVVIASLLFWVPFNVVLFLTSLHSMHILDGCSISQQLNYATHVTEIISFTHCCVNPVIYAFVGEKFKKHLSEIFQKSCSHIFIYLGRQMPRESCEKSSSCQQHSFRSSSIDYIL

[9] = target: T4, human CCR8 (C-C chemokine receptor type …); assay: on-cell affinity, flow cytometry on 293T cells expressing human CCR8; remark: listed apart in the source
[10] = target: T4, human CCR8 (C-C chemokine receptor type …); assay: flow cytometry, HuCCR8-293T cells, fold geomean over secondary alone
[11] = target: T5, mouse CCR8 expressed on 293T cells; assay: flow cytometry, MoCCR8-293T cells, fold geomean over secondary alone; remark: listed apart in the source
[12] = target: T1, Cynomolgus CCR8-ECD-Fc; assay: binding to CyCCR8-ECD-Fc protein, OD450-570 nm
[13] = target: T2, Human CCR8-ECD-Fc; assay: binding to HuCCR8-ECD-Fc protein, OD450-570 nm
[14] = target: T5, mouse CCR8 expressed on 293T cells; assay: flow cytometry, MoCCR8-293T cells, fold geomean over secondary alone; remark: listed apart in the source
[15] = target: T2, Human CCR8-ECD-Fc; assay: binding to HuCCR8-ECD-Fc protein, OD450-570nm
[16] = target: T3, cynomolgus monkey CCR8 expressed on …; assay: on-cell affinity, flow cytometry on 293T cells expressing cyno CCR8; remark: listed apart in the source
Target sequence in this assay (G7NYJ2 entry or part of it): as above

[17] = target: T4, human CCR8 (C-C chemokine receptor type …); assay: on-cell affinity, flow cytometry on 293T cells expressing human CCR8; remark: listed apart in the source
[18] = target: T4, human CCR8 (C-C chemokine receptor type …); assay: flow cytometry, HuCCR8-293T cells, fold geomean over secondary alone; remark: listed apart in the source
[19] = target: T5, mouse CCR8 expressed on 293T cells; assay: flow cytometry, MoCCR8-293T cells, fold geomean over secondary alone; remark: listed apart in the source
[20] = target: T6, amyloid precursor-like protein 2 (APLP2) (UniProt Q06481 32-763, limits assumed); assay: on-cell Kd, antibody titration on cells expressing APLP2, flow cytometry
T6 construct: whole, on cells

[21] = target: T4, human CCR8 (C-C chemokine receptor type …); assay: flow cytometry competition on Raji-CCR8 cells; competitor: fluorescently-conjugated BIOLEGEND anti-human CCR8 antibody at a single concentration
Method: To characterize the binding cite of the CCR8 antibodies, CCR8 antibodies were incubated with Raji-CCR8 cells in a dose-dependent manner in 96-well plates at 4° C. for 30 min. Unbound CCR8 antibodies were washed away and the cells were incubated with a fluorescently-conjugated human monoclonal anti-CCR8 antibody (commercially available) at a single concentration for 30 min at 37° C. Upon completion of the experiment, the binding of the commercially available monoclonal CCR8 antibody was assessed by Flow Cytometry.

[22] = target: T5, mouse CCR8 expressed on 293T cells; assay: flow cytometry, mouseCCR8-293T cells, fold geomean over secondary alone
[23] = target: T1, Cynomolgus CCR8-ECD-Fc; assay: binding to CyCCR8-ECD-huFc protein (so in the source), OD45-570nm (so in the source)
[24] = target: T2, Human CCR8-ECD-Fc; assay: binding to HuCCR8-ECD-moFc protein (so in the source), OD45-570nm (so in the source)
[25] = target: T5, mouse CCR8 expressed on 293T cells; assay: flow cytometry, mouseCCR8-293T cells, fold geomean over secondary alone; remark: listed apart in the source
[26] = target: T1, Cynomolgus CCR8-ECD-Fc; assay: binding to CyCCR8-ECD-huFc protein (so in the source), OD45-570nm (so in the source)
[27] = target: T2, Human CCR8-ECD-Fc; assay: binding to HuCCR8-ECD-moFc protein (so in the source), OD45-570nm (so in the source)
[28] = target: T1, Cynomolgus CCR8-ECD-Fc; assay: binding to CyCCR8-ECD-Fc protein, OD450-570 nm
[29] = target: T2, Human CCR8-ECD-Fc; assay: binding to HuCCR8-ECD-Fc protein, OD450-570 nm
[30] = target: T5, mouse CCR8 expressed on 293T cells; assay: flow cytometry, MoCCR8-293T cells, fold geomean over secondary alone; remark: listed apart in the source
[31] = target: T3, cynomolgus monkey CCR8 expressed on …; assay: flow cytometry, CynoCCR8-293T cells, fold geomean over secondary alone

T4 sequence (P51685 whole entry): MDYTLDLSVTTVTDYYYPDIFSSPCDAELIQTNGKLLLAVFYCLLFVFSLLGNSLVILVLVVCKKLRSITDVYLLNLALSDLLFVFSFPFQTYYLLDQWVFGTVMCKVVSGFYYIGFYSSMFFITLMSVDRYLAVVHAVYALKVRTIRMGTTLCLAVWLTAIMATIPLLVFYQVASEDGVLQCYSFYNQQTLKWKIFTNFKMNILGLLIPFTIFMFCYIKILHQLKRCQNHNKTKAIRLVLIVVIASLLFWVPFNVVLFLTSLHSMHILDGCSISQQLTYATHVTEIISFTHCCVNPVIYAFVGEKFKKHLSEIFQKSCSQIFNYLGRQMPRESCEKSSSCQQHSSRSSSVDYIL
T6 sequence (Q06481 32-763 limits assumed): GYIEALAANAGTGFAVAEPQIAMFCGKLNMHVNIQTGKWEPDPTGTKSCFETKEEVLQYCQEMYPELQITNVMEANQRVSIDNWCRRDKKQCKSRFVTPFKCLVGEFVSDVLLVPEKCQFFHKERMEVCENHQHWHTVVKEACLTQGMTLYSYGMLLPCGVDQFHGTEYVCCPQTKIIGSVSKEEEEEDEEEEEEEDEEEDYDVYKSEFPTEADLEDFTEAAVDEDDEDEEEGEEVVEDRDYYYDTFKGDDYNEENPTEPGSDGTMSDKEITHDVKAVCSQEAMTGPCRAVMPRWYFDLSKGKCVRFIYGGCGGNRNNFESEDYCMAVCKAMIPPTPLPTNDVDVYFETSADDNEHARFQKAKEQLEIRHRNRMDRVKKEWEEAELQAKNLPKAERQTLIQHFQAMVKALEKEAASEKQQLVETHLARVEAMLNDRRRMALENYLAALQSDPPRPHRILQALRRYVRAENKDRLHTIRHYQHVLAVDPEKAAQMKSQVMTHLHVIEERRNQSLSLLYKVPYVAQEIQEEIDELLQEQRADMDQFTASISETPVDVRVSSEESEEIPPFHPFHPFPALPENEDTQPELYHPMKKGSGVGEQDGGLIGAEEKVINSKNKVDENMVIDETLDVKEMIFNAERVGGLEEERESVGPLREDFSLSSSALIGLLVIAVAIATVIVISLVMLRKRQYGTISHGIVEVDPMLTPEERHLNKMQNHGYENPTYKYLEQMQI

B1: anti-CCR8-2 (antibody, V domains shown)
VH: EVQLLESGGGLVQPGGSLRLSCAAGGFTFSAYTMNWVRQAPGKGLEWVSAISASGGRTYYADSVKGRFTISRDNSKNTLYLQMNSLRAEDTAVYYCARRFARGWFDPWGQGTLVTVSS
VL: QSVLTQPPSVSAAPGQKVTISCSGSSSNIGNNYVSWYQQLPGTAPKLLIYDNNKRPSGIPDRFSGSKSGTSATLGITGLQTGDEADYYCGTWDSSLSAWVFGGGTKLT
notes: Cloned into mammalian expression vectors; human IgG; also called heavy chain H23727
binding result [1]: binds | binding result [2]: binds | Kd [3]: 0.94 nM | Kd [4]: 0.41 nM | binding result [5]: no binding (tested: 10 ug/ml)

B2: anti-CCR8-2-6 (antibody, V domains shown)
VH: EVQLVESGGGLVQPGRSLRLSCAASGFTFDDYAMHWVRQAPGKGLEWVSGISWNSGSIGYADSVKGRFTISRDNSKNSLYLQMNSLRAEDTALYYCARGRVSYRESLRFDYWGQGTLVT
VL: B1 VL
notes: Human IgG
EC50 (read off the curve) [6]: ~0.04 µg/mL | EC50 (read off the curve) [7]: ~0.04 µg/mL | Kd [8]: 4.5 nM | Kd [9]: 1.5 nM | EC50 (read off the curve) [10]: ~2 µg/mL | binding result [11]: no binding (tested: 10 ug/ml)

B3: anti-CCR8-2-1 (antibody, V domains shown)
VH: B1 VH with G25R, T28I, A31G, N35L, S52T
VL: B1 VL
notes: Human IgG from a mammalian expression vector
binding result [12]: binds | binding result [13]: binds | Kd [3]: 1.09 nM | Kd [4]: 0.54 nM | binding result [14]: no binding (tested: 10 ug/ml)

B4: anti-CCR8-1 (antibody, human IgG1, V domains shown)
VH: QVQLVQSGAEVKKPGASVKVSCKASGYTFTSYYMHWVRQAPGQGLEWMGIINPSGGSTSYAQKFQGRVTMTRDTSTSTVYMELSSLRSEDTAVYYCARAVRNRFRFDYWGQGTLVTVSS
VL: QSALTQPASVSGSPGQSITISCTGTSSDVGSYNLVSWYQQHPGKAPKLMIYEVSKRPSGVSNRFSGSKSGNTASLTISGLQAEDEADYYCSSYAGSSTFVVFGGGTKLTVL
binding result [15]: binds | Kd [16]: > 50 nM | Kd [17]: 0.41 nM | EC50 (read off the curve) [18]: ~1 µg/mL | binding result [19]: no binding (tested: 10 ug/ml) | binding result [20]: no binding (tested: 100 nM (top of the affinity axis)) | IC50 (read off the curve) [21]: ~0.02 µg/mL

B5: anti-CCR8-1-1 (antibody, V domains shown)
VH: QVQLVQSGAEVKKPGASVKVSCKASGYTFTSYYMHWVRQAPGQGLEWMGIINPSGGSTSYAQKFQGRVTMTRDTSTSTVYMELSSLRSEDTAVYYCARGVGNGFRFDYWGQGTLVT
VL: B4 VL with A8P, S31T, K44N, S54T, S74T, Y89H, S97I, F99H
notes: Parental-1 heavy chain with a shuffled lambda light chain; Expressed from a mammalian expression vector in CHO cells as human IgG
Kd [16]: 22.1 nM | Kd [17]: 1.01 nM | binding result [22]: no binding (tested: 10 ug/ml) | binding result [23]: binds | binding result [24]: binds

B6: anti-CCR8-1-5 (antibody, V domains shown)
VH: B5 VH
VL: B4 VL with A8P, T23S, H41E, M49I, S54N, Y89H, F99Y
notes: Parental-1 heavy chain with a shuffled lambda light chain; Human IgG expressed in CHO cells
Kd [16]: 48.6 nM | Kd [17]: 1.36 nM | binding result [25]: no binding (tested: 10 ug/ml) | binding result [26]: binds | binding result [27]: binds

B7: anti-CCR8-2-2 (antibody, V domains shown)
VH: EVQLLESGGGLVQPGGSLRLSCAAGGFTFSAYTMNWVRQAPGKGLEWVSAISASGGRTYYADSVKGRFTISRDNSKNTLYLQMNSLRAEDTAVYYCARRFARGWFDPWGQGTLVT
VL: QSVLTQPPSVSAAPGQRVTISCSGSTSNIGNHYVSWYQQLPRAVPKLVIYDNDKRPSGISDRFSGSRSGTSATLDISGLQAGDEADYYCATWDYSLTAVVFGGGTKLTVL
notes: Heavy chain of anti-CCR8-2 (H23727) cross-paired with a shuffled lambda light chain; Human IgG
binding result [28]: binds | binding result [29]: binds | Kd [3]: 1.6 nM | Kd [4]: 0.8 nM | binding result [30]: no binding (tested: 10 ug/ml) | EC50 (read off the curve) [31]: ~1 µg/mL
